Consider 1 molecule from PMC4021073, “Breast tumor specific mutation in GATA3 affects physiological mechanisms regulating transcription factor turnover”.

In this data set the target is GATA3 DBD wild-type (UniProt P23771-2 261-371). Kind of data set: EMSA; 0.5-4 uM protein, 30 uM DNA; 28 mM Tris-HCl pH 7.5, 120 mM NaCl, 1 mM DTT, 0.8 mM 2-mercaptoethanol, 4% glycerol, 0.4 uM zinc sulfate; 10 min at 37 C; 10 ul. The following applies: protein: recombinant; (pET-15b hexahistidine fusion); label: none (ethidium bromide stain); blunt (20 bp; one strand printed).
GATA3 DBD wild-type, sequence (P23771 260-370): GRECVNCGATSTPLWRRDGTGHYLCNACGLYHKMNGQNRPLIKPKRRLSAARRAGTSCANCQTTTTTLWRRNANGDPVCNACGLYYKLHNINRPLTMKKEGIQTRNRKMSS

B1: GATA+ 20 bp (dsDNA)
DNA 1: AATGTCCATCTGATAAGACG
DNA 2: CGTCTTATCAGATGGACATT
Take B1: the binding result was “binds”.
